Experimental data as given in the supplement of paper PMC11136658.

System: peptide library, one residue held at a place counted from the Y acceptor
Test: relative phosphorylation of the sub-library (ratio to the mean residue at this position); higher = residue favoured
Summary of the method: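 Each value expresses phosphorylation relative to the mean randomized residue. Purified recombinant kinases acted for 90 min in 384-well plates on biotinylated Tyr-centred peptide library mixtures, with one residue fixed at one position from −5 to +5, in the presence of 50 μM ATP with γ-32P-ATP. Signals were read by phosphorimaging after capture on streptavidin membranes, then normalized per position to the sum of the 18 randomized residues (16 in the Ser/Thr-free library) and multiplied by that number.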

TXK, construct: aa239-end, human, sequence (P42681 239-527, looked up): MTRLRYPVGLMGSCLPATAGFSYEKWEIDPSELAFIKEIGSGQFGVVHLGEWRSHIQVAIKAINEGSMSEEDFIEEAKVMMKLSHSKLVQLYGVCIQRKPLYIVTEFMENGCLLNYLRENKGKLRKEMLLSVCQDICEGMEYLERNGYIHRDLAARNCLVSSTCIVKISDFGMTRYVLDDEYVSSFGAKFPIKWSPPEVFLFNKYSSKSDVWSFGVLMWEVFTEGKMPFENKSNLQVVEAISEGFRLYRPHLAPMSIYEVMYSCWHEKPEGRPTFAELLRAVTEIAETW

## TXK, construct: aa239-end, human (from UniProt P42681)
A fixed, at +1
  relative phosphorylation: 1.58
A fixed, at +2
  relative phosphorylation: 1.14
A fixed, at +3
  relative phosphorylation: 0.87
A fixed, at +4
  relative phosphorylation: 0.836
A fixed, at +5
  relative phosphorylation: 0.784
A fixed, at -1
  relative phosphorylation: 0.51
A fixed, at -2
  relative phosphorylation: 1.03
A fixed, at -3
  relative phosphorylation: 0.998
A fixed, at -4
  relative phosphorylation: 1.03
A fixed, at -5
  relative phosphorylation: 1.07
D fixed, at +1
  relative phosphorylation: 2.77
D fixed, at +2
  relative phosphorylation: 1.02
D fixed, at +3
  relative phosphorylation: 0.409
D fixed, at +4
  relative phosphorylation: 0.931
D fixed, at +5
  relative phosphorylation: 0.726
D fixed, at -1
  relative phosphorylation: 0.678
D fixed, at -2
  relative phosphorylation: 2.01
D fixed, at -3
  relative phosphorylation: 1.85
D fixed, at -4
  relative phosphorylation: 1.81
D fixed, at -5
  relative phosphorylation: 1.32
E fixed, at +1
  relative phosphorylation: 2.53
E fixed, at +2
  relative phosphorylation: 1.15
E fixed, at +3
  relative phosphorylation: 0.345
E fixed, at +4
  relative phosphorylation: 0.797
E fixed, at +5
  relative phosphorylation: 0.692
E fixed, at -1
  relative phosphorylation: 0.83
E fixed, at -2
  relative phosphorylation: 1.99
E fixed, at -3
  relative phosphorylation: 2.25
E fixed, at -4
  relative phosphorylation: 1.53
E fixed, at -5
  relative phosphorylation: 1.32
F fixed, at +1
  relative phosphorylation: 0.463
F fixed, at +2
  relative phosphorylation: 1.14
F fixed, at +3
  relative phosphorylation: 1.52
F fixed, at +4
  relative phosphorylation: 1.03
F fixed, at +5
  relative phosphorylation: 1.26
F fixed, at -1
  relative phosphorylation: 1
F fixed, at -2
  relative phosphorylation: 0.539
F fixed, at -3
  relative phosphorylation: 0.887
F fixed, at -4
  relative phosphorylation: 0.727
F fixed, at -5
  relative phosphorylation: 0.858
G fixed, at +1
  relative phosphorylation: 1.28
G fixed, at +2
  relative phosphorylation: 0.725
G fixed, at +3
  relative phosphorylation: 0.939
G fixed, at +4
  relative phosphorylation: 1.18
G fixed, at +5
  relative phosphorylation: 1.14
G fixed, at -1
  relative phosphorylation: 0.379
G fixed, at -2
  relative phosphorylation: 1.35
G fixed, at -3
  relative phosphorylation: 1.13
G fixed, at -4
  relative phosphorylation: 1.34
G fixed, at -5
  relative phosphorylation: 1.27
H fixed, at +1
  relative phosphorylation: 0.614
H fixed, at +2
  relative phosphorylation: 1.08
H fixed, at +3
  relative phosphorylation: 1.38
H fixed, at +4
  relative phosphorylation: 1.07
H fixed, at +5
  relative phosphorylation: 1.1
H fixed, at -1
  relative phosphorylation: 0.774
H fixed, at -2
  relative phosphorylation: 0.798
H fixed, at -3
  relative phosphorylation: 0.997
H fixed, at -4
  relative phosphorylation: 0.89
H fixed, at -5
  relative phosphorylation: 1.04
I fixed, at +1
  relative phosphorylation: 0.981
I fixed, at +2
  relative phosphorylation: 0.782
I fixed, at +3
  relative phosphorylation: 0.907
I fixed, at +4
  relative phosphorylation: 0.835
I fixed, at +5
  relative phosphorylation: 0.76
I fixed, at -1
  relative phosphorylation: 3.78
I fixed, at -2
  relative phosphorylation: 0.515
I fixed, at -3
  relative phosphorylation: 0.553
I fixed, at -4
  relative phosphorylation: 0.641
I fixed, at -5
  relative phosphorylation: 0.782
K fixed, at +1
  relative phosphorylation: 0.175
K fixed, at +2
  relative phosphorylation: 0.848
K fixed, at +3
  relative phosphorylation: 0.625
K fixed, at +4
  relative phosphorylation: 0.986
K fixed, at +5
  relative phosphorylation: 1.05
K fixed, at -1
  relative phosphorylation: 0.34
K fixed, at -2
  relative phosphorylation: 0.693
K fixed, at -3
  relative phosphorylation: 0.63
K fixed, at -4
  relative phosphorylation: 0.905
K fixed, at -5
  relative phosphorylation: 1.04
L fixed, at +1
  relative phosphorylation: 0.444
L fixed, at +2
  relative phosphorylation: 0.723
L fixed, at +3
  relative phosphorylation: 1.12
L fixed, at +4
  relative phosphorylation: 0.881
L fixed, at +5
  relative phosphorylation: 0.901
L fixed, at -1
  relative phosphorylation: 2.45
L fixed, at -2
  relative phosphorylation: 0.627
L fixed, at -3
  relative phosphorylation: 0.534
L fixed, at -4
  relative phosphorylation: 0.571
L fixed, at -5
  relative phosphorylation: 0.722
M fixed, at +1
  relative phosphorylation: 0.788
M fixed, at +2
  relative phosphorylation: 0.788
M fixed, at +3
  relative phosphorylation: 1.24
M fixed, at +4
  relative phosphorylation: 0.968
M fixed, at +5
  relative phosphorylation: 0.88
M fixed, at -1
  relative phosphorylation: 1.4
M fixed, at -2
  relative phosphorylation: 0.602
M fixed, at -3
  relative phosphorylation: 0.598
M fixed, at -4
  relative phosphorylation: 0.76
M fixed, at -5
  relative phosphorylation: 0.723
N fixed, at +1
  relative phosphorylation: 0.539
N fixed, at +2
  relative phosphorylation: 1.3
N fixed, at +3
  relative phosphorylation: 1.24
N fixed, at +4
  relative phosphorylation: 1.05
N fixed, at +5
  relative phosphorylation: 1.1
N fixed, at -1
  relative phosphorylation: 0.638
N fixed, at -2
  relative phosphorylation: 1.24
N fixed, at -3
  relative phosphorylation: 1.25
N fixed, at -4
  relative phosphorylation: 1.17
N fixed, at -5
  relative phosphorylation: 1.06
P fixed, at +1
  relative phosphorylation: 0.254
P fixed, at +2
  relative phosphorylation: 0.933
P fixed, at +3
  relative phosphorylation: 0.908
P fixed, at +4
  relative phosphorylation: 1.63
P fixed, at +5
  relative phosphorylation: 1.23
P fixed, at -1
  relative phosphorylation: 0.531
P fixed, at -2
  relative phosphorylation: 1.74
P fixed, at -3
  relative phosphorylation: 1.16
P fixed, at -4
  relative phosphorylation: 1.24
P fixed, at -5
  relative phosphorylation: 1.25
Q fixed, at +1
  relative phosphorylation: 0.98
Q fixed, at +2
  relative phosphorylation: 1.16
Q fixed, at +3
  relative phosphorylation: 0.937
Q fixed, at +4
  relative phosphorylation: 0.94
Q fixed, at +5
  relative phosphorylation: 1.08
Q fixed, at -1
  relative phosphorylation: 0.514
Q fixed, at -2
  relative phosphorylation: 1.19
Q fixed, at -3
  relative phosphorylation: 1.19
Q fixed, at -4
  relative phosphorylation: 1.19
Q fixed, at -5
  relative phosphorylation: 1.16
R fixed, at +1
  relative phosphorylation: 0.207
R fixed, at +2
  relative phosphorylation: 1.14
R fixed, at +3
  relative phosphorylation: 1.01
R fixed, at +4
  relative phosphorylation: 1.13
R fixed, at +5
  relative phosphorylation: 1.21
R fixed, at -1
  relative phosphorylation: 0.27
R fixed, at -2
  relative phosphorylation: 0.605
R fixed, at -3
  relative phosphorylation: 0.64
R fixed, at -4
  relative phosphorylation: 0.858
R fixed, at -5
  relative phosphorylation: 0.944
S fixed, at +1
  relative phosphorylation: 1.22
S fixed, at +2
  relative phosphorylation: 1.41
S fixed, at +3
  relative phosphorylation: 1.07
S fixed, at +4
  relative phosphorylation: 0.968
S fixed, at +5
  relative phosphorylation: 0.896
S fixed, at -1
  relative phosphorylation: 0.575
S fixed, at -2
  relative phosphorylation: 1.06
S fixed, at -3
  relative phosphorylation: 0.995
S fixed, at -4
  relative phosphorylation: 0.895
S fixed, at -5
  relative phosphorylation: 0.898
T fixed, at +1
  relative phosphorylation: 1.39
T fixed, at +2
  relative phosphorylation: 1.64
T fixed, at +3
  relative phosphorylation: 0.808
T fixed, at +4
  relative phosphorylation: 1.09
T fixed, at +5
  relative phosphorylation: 1
T fixed, at -1
  relative phosphorylation: 0.948
T fixed, at -2
  relative phosphorylation: 0.87
T fixed, at -3
  relative phosphorylation: 0.928
T fixed, at -4
  relative phosphorylation: 0.908
T fixed, at -5
  relative phosphorylation: 0.807
V fixed, at +1
  relative phosphorylation: 1.57
V fixed, at +2
  relative phosphorylation: 1.01
V fixed, at +3
  relative phosphorylation: 0.9
V fixed, at +4
  relative phosphorylation: 0.834
V fixed, at +5
  relative phosphorylation: 0.783
V fixed, at -1
  relative phosphorylation: 1.45
V fixed, at -2
  relative phosphorylation: 0.624
V fixed, at -3
  relative phosphorylation: 0.571
V fixed, at -4
  relative phosphorylation: 0.728
V fixed, at -5
  relative phosphorylation: 0.771
W fixed, at +1
  relative phosphorylation: 0.829
W fixed, at +2
  relative phosphorylation: 1.06
W fixed, at +3
  relative phosphorylation: 1.64
W fixed, at +4
  relative phosphorylation: 0.899
W fixed, at +5
  relative phosphorylation: 1.3
W fixed, at -1
  relative phosphorylation: 0.461
W fixed, at -2
  relative phosphorylation: 0.443
W fixed, at -3
  relative phosphorylation: 0.77
W fixed, at -4
  relative phosphorylation: 0.607
W fixed, at -5
  relative phosphorylation: 0.668
pThr fixed, at +1
  relative phosphorylation: 3.94
pThr fixed, at +2
  relative phosphorylation: 2.21
pThr fixed, at +3
  relative phosphorylation: 0.407
pThr fixed, at +4
  relative phosphorylation: 0.62
pThr fixed, at +5
  relative phosphorylation: 0.444
pThr fixed, at -1
  relative phosphorylation: 1.85
pThr fixed, at -2
  relative phosphorylation: 1.4
pThr fixed, at -3
  relative phosphorylation: 1.35
pThr fixed, at -4
  relative phosphorylation: 1.14
pThr fixed, at -5
  relative phosphorylation: 0.994
pTyr fixed, at +1
  relative phosphorylation: 1.25
pTyr fixed, at +2
  relative phosphorylation: 1.67
pTyr fixed, at +3
  relative phosphorylation: 0.517
pTyr fixed, at +4
  relative phosphorylation: 0.595
pTyr fixed, at +5
  relative phosphorylation: 0.619
pTyr fixed, at -1
  relative phosphorylation: 1.72
pTyr fixed, at -2
  relative phosphorylation: 1.2
pTyr fixed, at -3
  relative phosphorylation: 1.23
pTyr fixed, at -4
  relative phosphorylation: 0.945
pTyr fixed, at -5
  relative phosphorylation: 0.998
